These results are taken from article PMC4837482, “The complex binding mode of the peptide hormone H2 relaxin to its receptor RXFP1” (Nature Communications, 2016).

Assay [1] deals with T1, RXFP1 (Homo sapiens, UniProt Q9HBX9).
T1 construct: transiently transfected human embryonic kidney (HEK) 293T cells expressing full-length RXFP1 and mutants; expressed in transfected cells; host or cells: HEK293T
T1 sequence (Q9HBX9 1-757): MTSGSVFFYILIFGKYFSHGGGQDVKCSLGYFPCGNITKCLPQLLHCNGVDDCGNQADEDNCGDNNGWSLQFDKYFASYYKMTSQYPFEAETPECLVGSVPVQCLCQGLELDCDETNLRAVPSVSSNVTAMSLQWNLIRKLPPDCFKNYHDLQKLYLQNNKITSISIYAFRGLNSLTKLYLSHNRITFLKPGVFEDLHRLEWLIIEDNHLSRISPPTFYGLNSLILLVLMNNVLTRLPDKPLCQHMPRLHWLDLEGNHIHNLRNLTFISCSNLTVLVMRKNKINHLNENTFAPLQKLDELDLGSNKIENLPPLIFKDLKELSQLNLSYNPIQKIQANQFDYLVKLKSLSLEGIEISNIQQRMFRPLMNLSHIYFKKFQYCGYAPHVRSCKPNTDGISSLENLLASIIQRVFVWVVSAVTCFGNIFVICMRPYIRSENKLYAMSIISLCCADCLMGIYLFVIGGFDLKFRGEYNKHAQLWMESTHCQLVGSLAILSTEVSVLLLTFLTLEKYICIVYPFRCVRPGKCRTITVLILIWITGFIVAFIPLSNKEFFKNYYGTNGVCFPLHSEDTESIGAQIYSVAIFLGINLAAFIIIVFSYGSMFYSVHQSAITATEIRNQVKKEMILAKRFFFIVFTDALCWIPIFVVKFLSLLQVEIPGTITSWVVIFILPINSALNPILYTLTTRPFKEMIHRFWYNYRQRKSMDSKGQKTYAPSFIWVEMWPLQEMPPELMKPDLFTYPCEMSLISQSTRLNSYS
Conditions: versus H2 relaxin; cited from earlier work.

Assay [2] addresses T1, RXFP1. Particulars: versus H2 relaxin; cited from earlier work. The source holds these as a separate data set.
In a further assay the target is T2, RXFP1(1–72) (Homo sapiens, UniProt Q9HBX9).
T2 construct: GB1 (N, cleaved yes); made in house; host or cells: E. coli BL21 (DE3) trxB
T2 sequence (Q9HBX9 23-94 limits assumed): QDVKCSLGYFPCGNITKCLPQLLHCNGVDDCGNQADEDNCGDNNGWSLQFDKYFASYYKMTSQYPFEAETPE
The assay can be described thus: NMR competition titration against the RXFP1(1–72)/Mn2+-DTPA-(A)-H2 complex. Format: binding. Particulars: 50 μM peptide added to 50 μM 15N-RXFP1(1–72) with 0.2 μM Mn2+-DTPA-(A)-H2; pH 6.8, 25 °C. As for the experimental part:
All RXFP1(1–72) protein samples for nuclear magnetic resonance (NMR) experiments were prepared from lyophilized protein in 50 mM imidazole, with 10 mM CaCl2 at pH 6.8. Recombinant human gene-2 H2 relaxin peptide was kindly provided by Corthera. EL1^(475–486)/EL2-GB1 samples were prepared as described above. Titrant and titrand were dialyzed in the same buffer in the same vessel. All NMR experiments were routinely collected at 25 °C on a 700-MHz Bruker Avance HDIII spectrometer equipped with triple resonance cryoprobe. […] Backbone assignments were made from 3D HNCACB, HNCOCACB, HNCO and HNCACO experiments. Spectra were processed using NMRPipe (ref. [43]) and typically Fourier-transformed after applying Lorentz-to-Gauss window functions in the direct dimension and cosine bells in the indirect dimensions. NMR data were analysed using SPARKY (Goddard, T.D. and Kneller, D.G., University of California, San Francisco). Assignments of the mutant RXFP1(1–72) proteins were determined from the assignments of wild-type RXFP1(1–72).
^15N{^1H}-NOE experiments[45] (2,048 × 256 data points) were acquired with a saturation pulse of 4 s and an additional relaxation delay of 5 s. Sample conditions were 150 μM RXFP(1–72) or mutants either without or with 450 μM H2 relaxin. Binding to Mn^2+-DTPA-(A)-H2 to RXFP1(1–72) and mutants was monitored by recording 2D ^1H-^15N HSQC (2,048 × 256 data points) for 0.2 μM Mn^2+-DTPA-(A)-H2 against 50 μM RXFP1(1–72). H2 relaxin and its truncates such as A-chain (9–24), H2/I5 chimera and Phe23Ala A-chain mutant H2 were titrated into a complex of 50 μM RXFP1(1–72) and 0.2 μM Mn^2+-DTPA-(A)-H2 with increasing concentrations ranging from 5 to 50 μM.

The target of assay [3] is T3, Europium-labelled H2 relaxin (human, UniProt P04090 162-185; P04090 25-53, DTPA cage loaded with Eu^3+ on the N-terminus of the A-chain).
T3 construct: A chain of human gene-2 (H2) relaxin; numbers count on: the A chain; B chain of human gene-2 (H2) relaxin; numbers count on: the B chain; also called Eu-H2 relaxin; Eu-H2
The assay can be described thus: europium-labelled ligand saturation binding on cells (time-resolved fluorescence); HEK293T cells transiently transfected with receptor, 96-well plates; increasing Eu-H2 relaxin (maximum 15 nM) with or without 1 μM unlabelled H2 relaxin, 1 h, room temperature; 20 mM HEPES pH 7.5, 1.5 mM CaCl2, 50 mM NaCl, 0.01% NaN3, 1% BSA; one-site fit. Conditions: one partner purified.

Substitutions are numbered along the chain they refer to. Names and notes keep the numbering of the source. “Also recorded” adds a separate entry of the source. Where no end group is shown, it is not given here.

As to “A-chain (9–24) H2: N-terminally truncated A-chain (9–24) H2 peptide (KCCHVGCTKRSLARFC; ends and bridges not checked; cysteine pairing not given here; UniProt P04090 170-185, looked up, fragment)”, the “affinity for RXFP1” value with RXFP1 [1] is “decreased”. Moreover, the “potency for RXFP1” value in the assay with RXFP1 [2] is on record as “decreased”. For the same molecule, the “competition with Mn2+-DTPA-(A)-H2 for RXFP1(1–72) (peak intensities, chemical shifts)” value with RXFP1(1–72) is reported as “the gain in peak intensity was not as pronounced as that recorded with native H2 peptide”.

Consider “H2-(B5–29): B-chain truncate of H2 relaxin (EEVIKLCGRELVRAQIAICGMSTWS; ends and bridges not checked; cysteine pairing not given here; UniProt P04090 29-53, looked up, fragment)”, for which the “affinity at RXFP1” value with RXFP1 [1] was “retain their native affinity and potency”. Besides, the “potency at RXFP1” value with RXFP1 [2] was “retain their native affinity and potency”. In addition, in the assay with RXFP1(1–72), the “competition with Mn2+-DTPA-(A)-H2 for RXFP1(1–72) (peak intensities, chemical shifts)” value is listed as “did not detect any significant difference in binding”.

Take “H2/I5-2: A-chain H2 chimeric analogue; His12 and Val13 (H2) replaced by Thr12 and Asp13 (INSL5) (QLYSALANKCCTDGCTKRSLARFC; ends and bridges not checked; cysteine pairing not given here; UniProt P04090 162-185, looked up, variant H12T V13D)”: the “binding affinity for RXFP1” value with RXFP1 [1] is “modest loss of binding”. For the same molecule, the “activation of RXFP1” value with RXFP1 [2] is reported as “retains the ability to activate”. Further, the “competition with Mn2+-DTPA-(A)-H2 for RXFP1(1–72) (peak intensities, chemical shifts)” value with RXFP1(1–72) is “no changes were observed in peak intensities or chemical shifts; also recorded: could not bind”.

Turning to “H2-(B1–25): B-chain truncate of H2 relaxin (DSWMEEVIKLCGRELVRAQIAICGM; ends and bridges not checked; cysteine pairing not given here; UniProt P04090 25-49, looked up, fragment)”, the “affinity at RXFP1” value with RXFP1 [1] was “retain their native affinity and potency”. The “potency at RXFP1” value in the assay with RXFP1 [2] is “retain their native affinity and potency”. In the assay with RXFP1(1–72), the “competition with Mn2+-DTPA-(A)-H2 for RXFP1(1–72) (peak intensities, chemical shifts)” value is “did not detect any significant difference in binding”.

Take “F23A: H2 relaxin mutant F23A; destabilizes the secondary structure of the A-chain (QLYSALANKCCHVGCTKRSLARAC; ends and bridges not checked; cysteine pairing not given here; UniProt P04090 162-185, looked up, variant F23A)”: the “binding affinity for RXFP1” value with RXFP1 [1] is “significant loss”. In addition, the “activation of RXFP1” value in the assay with RXFP1 [2] is reported as “significant loss”. For the same molecule, in the assay with RXFP1(1–72), the “competition with Mn2+-DTPA-(A)-H2 for RXFP1(1–72) (peak intensities, chemical shifts)” value is “did not compete”.

B1: RXFP1 G41A/D42A, full length (receptor)
chain: QDVKCSLGYFPCGNITKCLPQLLHCNGVDDCGNQADEDNCAANNGWSLQFDKYFASYYKMTSQYPFEAETPECLVGSVPVQCLCQGLELDCDETNLRAVPSVSSNVTAMSLQWNLIRKLPPDCFKNYHDLQKLYLQNNKITSISIYAFRGLNSLTKLYLSHNRITFLKPGVFEDLHRLEWLIIEDNHLSRISPPTFYGLNSLILLVLMNNVLTRLPDKPLCQHMPRLHWLDLEGNHIHNLRNLTFISCSNLTVLVMRKNKINHLNENTFAPLQKLDELDLGSNKIENLPPLIFKDLKELSQLNLSYNPIQKIQANQFDYLVKLKSLSLEGIEISNIQQRMFRPLMNLSHIYFKKFQYCGYAPHVRSCKPNTDGISSLENLLASIIQRVFVWVVSAVTCFGNIFVICMRPYIRSENKLYAMSIISLCCADCLMGIYLFVIGGFDLKFRGEYNKHAQLWMESTHCQLVGSLAILSTEVSVLLLTFLTLEKYICIVYPFRCVRPGKCRTITVLILIWITGFIVAFIPLSNKEFFKNYYGTNGVCFPLHSEDTESIGAQIYSVAIFLGINLAAFIIIVFSYGSMFYSVHQSAITATEIRNQVKKEMILAKRFFFIVFTDALCWIPIFVVKFLSLLQVEIPGTITSWVVIFILPINSALNPILYTLTTRPFKEMIHRFWYNYRQRKSMDSKGQKTYAPSFIWVEMWPLQEMPPELMKPDLFTYPCEMSLISQSTRLNSYS
In turn, B1 displayed a Kd in assay [3] greater than 20 nM.

B2: RXFP1 G45A/W46A, full length (receptor)
chain: B1 chain with A41G, A42D, G45A, W46A
With B2, the Kd in assay [3] was greater than 20 nM.
